# Target: ^cchexAFG3L2 (human) (UniProt Q9Y4W6)
# Test: SEC
substance,measurement,value
^cchexAFG3L2 (from UniProt Q9Y4W6 272-797) (enzyme),stoichiometry N,6
